Laboratory results from patent US20130071428A1.

What was measured:
[1] = target: b1, neg contr. (Clostridium tetani); assay: Tettox ELISA, negative control peptide; antibody source not named in Table 4
[2] = target: … (18-mer) with Ahx-Lys(biotin) (Clostridium tetani); assay: Tettox ELISA, biotinylated peptide on streptavidin plate
[3] = target: J Z F I G I T E L K K L E S K I N K V F (Clostridium tetani)
[4] = target: J Z SKFIGITELKKLESKINKVF (Clostridium tetani)
[5] = target: J Z Z SKFIGITELKKLESKINKVF (Clostridium tetani)
[6] = target: J Z Z F I G I T E L K K L E S K I N K V F (Clostridium tetani)
[7] = target: … (18-mer) with Ahx-Lys(biotin) (Clostridium tetani)

How did the OD (column without a head) [1] turn out when TetaQuin® (antibody) was run?
Its OD (column without a head) is 0.12 OD.

What about the OD [2] of the same substance?
The OD was 2.3 OD.

What about the OD (column without a head) [3] of the same substance?
Its OD (column without a head) is 0.17 OD.

And the OD (column without a head) [4]?
Its OD (column without a head) is 0.28 OD.

What about the OD (column without a head) [5] of the same substance?
Its OD (column without a head) is 0.47 OD.

And the OD (column without a head) [6]?
Its OD (column without a head) is 0.22 OD.

And the ELISA OD (Ala scan of …, # 9)?
The ELISA OD was 0.62 OD.

What about the ELISA OD (Ala scan of …, # 17) of the same substance?
The ELISA OD was 1.3 OD.

And the ELISA OD (Ala scan of …, # 19)?
Its ELISA OD is 1.26 OD.

What about the ELISA OD (Ala scan of …, # 4) of the same substance?
Its ELISA OD is 0.65 OD.

And the ELISA OD (Ala scan of …, # 5)?
The ELISA OD was 0.3 OD.

And the ELISA OD (Ala scan of …, # 13)?
The ELISA OD was 1.27 OD.

What about the ELISA OD (Ala scan of …, # 12) of the same substance?
Its ELISA OD is 0.85 OD.

What about the ELISA OD (Ala scan of …, # 10) of the same substance?
Its ELISA OD is 1.06 OD.

What about the ELISA OD (Ala scan of …, # 15) of the same substance?
The ELISA OD was 0.88 OD.

And the ELISA OD (Ala scan of …, # 8)?
The ELISA OD was 0.9 OD.

What about the ELISA OD (Ala scan of …, # 2) of the same substance?
The ELISA OD was 1.12 OD.

What about the ELISA OD (Ala scan of …, # 16) of the same substance?
The ELISA OD was 1.37 OD.

What about the ELISA OD [7] of the same substance?
Its ELISA OD is 1.26 OD.

What about the ELISA OD (Ala scan of …, # 18) of the same substance?
Its ELISA OD is 1.24 OD.

And the ELISA OD (Ala scan of …, # 3)?
The ELISA OD was 1.04 OD.

What about the ELISA OD (Ala scan of …, # 6) of the same substance?
Its ELISA OD is 0.38 OD.

What about the ELISA OD (Ala scan of …, # 14) of the same substance?
Its ELISA OD is 1.1 OD.

And the ELISA OD (Ala scan of …, # 7)?
The ELISA OD was 1.24 OD.

And the ELISA OD (Ala scan of …, # 11)?
The ELISA OD was 0.7 OD.
